How the values were obtained:
[1] = molecular target: EphB2-Fc; test: SPR competition on immobilised EphB2-Fc; competitor ephrinB2-Fc (246 nM) preincubated with 0-1020 nM GST-Azu 88-113
[2] = molecular target: EphB2-Fc; test: SPR competition on immobilised EphB2-Fc; competitor ephrinB2-Fc (246 nM), 0-1020 nM GST-Azu 88-113
[3] = molecular target: EphB2-Fc; test: SPR, EphB2-Fc immobilised on CM5, 100 nM analyte

Chain of EphB2-Fc (P54763 19-543): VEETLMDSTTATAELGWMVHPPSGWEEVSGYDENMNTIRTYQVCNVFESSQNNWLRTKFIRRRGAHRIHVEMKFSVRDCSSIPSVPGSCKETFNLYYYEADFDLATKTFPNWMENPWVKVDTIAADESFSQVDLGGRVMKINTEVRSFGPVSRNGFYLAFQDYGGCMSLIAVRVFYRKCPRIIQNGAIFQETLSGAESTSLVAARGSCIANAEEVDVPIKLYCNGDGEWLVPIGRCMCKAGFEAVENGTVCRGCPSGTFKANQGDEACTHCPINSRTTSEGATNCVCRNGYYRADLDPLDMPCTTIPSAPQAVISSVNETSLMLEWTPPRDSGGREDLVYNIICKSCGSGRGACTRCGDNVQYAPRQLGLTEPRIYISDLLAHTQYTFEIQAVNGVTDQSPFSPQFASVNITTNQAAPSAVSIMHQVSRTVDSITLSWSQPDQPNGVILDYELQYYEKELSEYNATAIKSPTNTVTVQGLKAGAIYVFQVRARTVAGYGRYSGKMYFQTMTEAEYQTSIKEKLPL
Chain of GST-Azu 88-113 (chain): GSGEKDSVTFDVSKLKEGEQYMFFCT
Chain of GST-Azu 36-89 (B3EWN9 36-89): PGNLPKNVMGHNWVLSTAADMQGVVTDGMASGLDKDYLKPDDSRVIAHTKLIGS

Substance | reduction of total protein binding to the surface [1] [%] | level at which the inhibition levels off [2] [%] | Req in RU [3] [RU]
GST-Azu 88-113 | < 60 | 40 to 50 | –
GST-Azu 36-89 (from UniProt B3EWN9 36-89) | – | – | 57

Reference: patent publication US20180319847A1
